# Results from patent publication US20250276092A1 (Regeneron, published 2025).
# T1: monkey CD40 extracellular domain expressed with a C-terminal myc-myc-hexahistidine tag (monkey)
# T1 construct: also called mfCD40-MMH; REGN3097
# T1 chain: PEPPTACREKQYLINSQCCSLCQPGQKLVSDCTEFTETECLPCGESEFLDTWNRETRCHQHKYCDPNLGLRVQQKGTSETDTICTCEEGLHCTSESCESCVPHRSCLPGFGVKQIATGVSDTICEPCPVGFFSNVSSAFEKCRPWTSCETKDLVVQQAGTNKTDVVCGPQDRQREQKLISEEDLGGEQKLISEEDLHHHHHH
# T2: mouse CD40 extracellular domain expressed with a C-terminal myc-myc-hexahistidine tag (mouse)
# T2 construct: also called mCD40-MMH; REGN3098
# T2 chain: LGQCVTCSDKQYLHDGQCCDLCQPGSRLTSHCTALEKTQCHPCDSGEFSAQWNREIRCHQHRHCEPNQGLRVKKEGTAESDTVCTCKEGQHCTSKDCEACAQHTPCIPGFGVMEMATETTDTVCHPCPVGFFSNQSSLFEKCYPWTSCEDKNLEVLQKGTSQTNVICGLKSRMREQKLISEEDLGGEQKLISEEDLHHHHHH
# B1: 21520P2 (antibody, human IgG4 S228P, kappa, V domains shown)
# VH: EVQLVESGGGLVQPGGSLRLSCAASGFTFGSYGMAWVRQAPGKGLEWVSAISGSGDYTNYADSVKRRFTISRDNSKNTLYLQMSSLRAEDTAVYYCAKEKTGTTGYLYSGMDVWGQGTTVTVSS
# VL: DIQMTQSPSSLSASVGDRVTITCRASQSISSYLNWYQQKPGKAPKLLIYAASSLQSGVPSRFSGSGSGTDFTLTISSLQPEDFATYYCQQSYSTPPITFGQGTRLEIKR
# notes: Parental bivalent anti-CD40 mAb; also called H4sH21520P2
# B2: 30027P2 (antibody, human IgG4 S228P, kappa, V domains shown)
# VH: EVQLVESGGGLVQPGGSLRLSCAASGFTFSSYAMNWVRQAPGKGLEWVSIISGTIGKTYYADSVKGRFTISRDNSKNTLYLQMNSLRGEDTAVYYCAKDTERDITGSPFDYWGQGTLVTVSS
# VL: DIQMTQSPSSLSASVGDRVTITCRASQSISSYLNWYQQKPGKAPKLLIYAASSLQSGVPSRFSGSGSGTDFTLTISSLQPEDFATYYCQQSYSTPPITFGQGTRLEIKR
# notes: Parental bivalent anti-CD40 mAb; also called H4sH30027P2
# B3: 21519P2 (antibody, human IgG4 S228P, kappa, V domains shown)
# VH: QLQLQESGPGLVRPSETLSLTCSVSGASMNTNNYYWGWIRQPPGKGLEWIGSGYYNGNTYYNPSLKSRVTISVDTSKNQFSLKLNSVTAADTAVYYCARQTPPRIIGSPNIWGQGTMVTVSS
# VL: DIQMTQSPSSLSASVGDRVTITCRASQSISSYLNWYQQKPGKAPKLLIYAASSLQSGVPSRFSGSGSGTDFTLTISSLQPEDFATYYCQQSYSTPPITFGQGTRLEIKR
# notes: Parental bivalent anti-CD40 mAb; also called H4sH21519P2
# Experiments:
# [1] = molecular target: T1, monkey CD40 extracellular domain …; assay: SPR 25C, captured mAb
# Protocol: (§1) The equilibrium dissociation constants (KD) for anti-CD40 bivalent and bispecific monoclonal antibodies (mAbs) were determined using a real-time surface plasmon resonance (SPR)-based Biacore 4000 biosensor. All binding studies were performed in 10 mM HEPES, 150 mM NaCl, 3 mM EDTA, and 0.05% v/v surfactant Tween-20, pH 7.4 (HBS-ET) running buffer at 25° C. and 37° C. The Biacore CM5 sensor surface was first derivatized by amine coupling with a monoclonal mouse anti-human Fc antibody (REGN2567) to capture anti-CD40 bivalent parental and anti-CD40×CD40 bispecific antibodies. Different concentrations of CD40 reagents, human CD40 extracellular domain expressed with a C-terminal myc-myc-hexahistidine tag (“hCD40-MMH”; REGN3094; SEQ ID NO: 53), monkey CD40 extracellular domain expressed with a C-terminal myc-myc-hexahistidine tag (“mfCD40-MMH”; REGN3097; SEQ ID NO: 54), and mouse CD40 extracellular domain expressed with a C-terminal myc-myc-hexahistidine tag (“mCD40-MMH”; REGN3098; SEQ ID NO: 55), at concentrations ranging from 3.7 nM to 100 nM or 3.3 nM to 90 nM in a series of 3-fold dilutions prepared in HBS-ET running buffer were injected at a flow rate of […] for 4 minutes or […] for 5 minutes. The dissociation of different CD40 reagents bound to anti-CD40 bivalent parental and anti-CD40×CD40 bispecific antibodies was monitored for 10 minutes in HBS-ET running buffer. At the end of each cycle, the anti-CD40 bivalent parental and anti-CD40×CD40 bispecific antibodies capture surface was regenerated using a 12 sec injection of 20 mM H₃PO₄.
# (§2) The association rate (ka) and dissociation rate (kd) were determined by fitting the real-time binding sensorgrams to a 1:1 binding model with mass transport limitation using Scrubber 2.0c curve-fitting software. Binding dissociation equilibrium constant (KD) and dissociative half-life (t½) were calculated from the kinetic rates as: KD (M)=kd/kₐ, and t_{1/2} (min)=[ln(2)/(60*kd)].
# [2] = molecular target: T2, mouse CD40 extracellular domain …; assay: SPR 25C, captured mAb
# Protocol: as §1, §2
# [3] = molecular target: T3, human CD40 extracellular domain expressed with a C-terminal myc-myc-hexahistidine tag (human); assay: SPR 25C, captured mAb
# T3 construct: also called hCD40-MMH; hCD40-mmH
# Protocol: as §1, §2
# [4] = molecular target: T2, mouse CD40 extracellular domain …; assay: SPR 37C, captured mAb
# Protocol: as §1, §2
# [5] = molecular target: T3, human CD40 extracellular domain …; assay: SPR 37C, captured mAb
# Protocol: as §1, §2
# [6] = molecular target: T4, human CD40 expressed on cells (human, UniProt P25942 21-277); assay: cell-based or functional assay
# T4 sequence (P25942 21-277): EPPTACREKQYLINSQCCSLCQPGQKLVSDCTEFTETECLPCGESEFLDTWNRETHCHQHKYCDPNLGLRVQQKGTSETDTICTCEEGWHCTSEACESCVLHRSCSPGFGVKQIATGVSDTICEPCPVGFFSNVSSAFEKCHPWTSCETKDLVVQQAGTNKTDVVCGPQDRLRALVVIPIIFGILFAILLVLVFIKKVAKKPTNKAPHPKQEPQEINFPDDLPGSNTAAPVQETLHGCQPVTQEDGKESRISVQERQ
# [7] = molecular target: T4, human CD40 expressed on cells; assay: cell-based or functional assay; remark: listed apart in the source
# [8] = molecular target: T4, human CD40 expressed on cells; assay: cell-based or functional assay; remark: listed apart in the source
# [9] = molecular target: T3, human CD40 extracellular domain …; assay: ELISA, blocks 40 nM hCD40-mmH binding to coated 9His-hCD40L
# Protocol: In the blocking assay, 9His-hCD40L was passively absorbed at a concentration of 5 μg/mL in PBS on a 96-well microtiter plate overnight at 4° C. […] In a separate 96-well microtiter plate, a fixed amount of 40 nM hCD40-mmH was pre-mixed with one of the following antibodies, at concentrations ranging from 977 pM to 1 μM in PBS+0.5% BSA: (1) anti-CD40×CD40 bispecific antibodies (REGN16431, REGN16432, REGN16634, and REGN16335); (2) parental anti-CD40 mAbs (bivalent antibodies comprising 2 fragment antigen-binding [Fab] arms identical to one of anti-CD40 Fab of anti-CD40×CD40 antibodies); (3) anti-CD40×Irrelevant antibodies (bivalent antibodies that incorporate one Fab arm identical to one of anti-CD40 Fab of anti-CD40×CD40 antibodies and another Fab arm specific to an irrelevant antigen); and (4) human IgG4 with Fc mutation isotype control antibodies (REGN7540 and REGN4513). The fixed concentration of hCD40-mmH was selected to be near the concentration (EC₅₀ value) that generated 50% of the maximal binding to the plate-adhered 9His-hCD40L. After one-hour incubation, the antibody-antigen complexes were transferred to the microtiter plate coated with 9His-hCD40L. After one hour incubation at room temperature, the plates were washed, and plate-bound hCD40-mmH protein was detected with horseradish peroxidase (HRP) conjugated goat anti-c-Myc antibody. The plates were then developed using TMB substrate solution (BD Biosciences) according to the manufacturer's recommended procedure and the absorbance at 450 nm (OD₄₅₀) was measured on a SpectraMax i3× plate reader.
# Binding data were analyzed using a sigmoidal (four-parameter logistic) dose-response model with GraphPad Prism™ software. […] The percent blocking of tested antibodies at the highest tested concentration ([…]) was calculated based on the formula shown below: […]
binder,measurement,setting,value
B1,100 nM Ag Bound (RU),[1],10.1 RU
same,100 nM Ag Bound (RU),[2],-0.5 RU
same,100 nM Ag Bound (RU),[3],76.6 RU
same,100 nM Ag Bound (RU),[4],0.2 RU
same,100 nM Ag Bound (RU),[5],67.2 RU
same,"EC50, NFkB-luc Ramos, no ligand",[6],> 10 nM
same,"IC50 (three highest concentrations excluded, hook effect), NFkB-luc Ramos, 500 pM hCD40L",[6],8.06e-11 M
same,"Max % activation, NFkB-luc Ramos, no ligand",[6],49%
same,"Max % inhibition, NFkB-luc Ramos, 500 pM hCD40L",[6],63%
same,"EC50, NFkB-luc Raji, no ligand",[7],> 100 nM
same,"IC50, NFkB-luc Raji, 900 pM hCD40L",[7],7.7e-11 M
same,"Max % activation, NFkB-luc Raji, no ligand",[7],25%
same,"Max % inhibition, NFkB-luc Raji, 900 pM hCD40L",[7],81%
same,"IC50, NFkB-luc THP-1, 10 nM hCD40L",[8],0.437 nM
same,"Max % activation, NFkB-luc THP-1, no ligand",[8],1%
same,"Max % inhibition, NFkB-luc THP-1, 10 nM hCD40L",[8],97%
same,% Blocking at highest mAb concentration,[9],94%
B2,100 nM Ag Bound (RU),[1],63.1 RU
same,100 nM Ag Bound (RU),[2],0.2 RU
same,100 nM Ag Bound (RU),[3],62 RU
same,100 nM Ag Bound (RU),[4],0.2 RU
same,100 nM Ag Bound (RU),[5],66.5 RU
same,"EC50 in the presence of CD40L (potentiation), NFkB-luc Ramos, 500 pM hCD40L",[6],8.14e-12 M
same,"Max % activation, NFkB-luc Ramos, no ligand",[6],8%
same,"Max % inhibition, NFkB-luc Ramos, 500 pM hCD40L",[6],-130%
same,"IC50, NFkB-luc Raji, 900 pM hCD40L",[7],8.95e-12 M
same,"Max % activation, NFkB-luc Raji, no ligand",[7],9%
same,"Max % inhibition, NFkB-luc Raji, 900 pM hCD40L",[7],67%
same,"EC50 in the presence of CD40L (potentiation), NFkB-luc THP-1, 10 nM hCD40L",[8],0.00251 nM
same,"Max % activation, NFkB-luc THP-1, no ligand",[8],2%
same,"Max % inhibition, NFkB-luc THP-1, 10 nM hCD40L",[8],-61%
B3,100 nM Ag Bound (RU),[1],10.3 RU
same,100 nM Ag Bound (RU),[2],0.4 RU
same,100 nM Ag Bound (RU),[3],99 RU
same,100 nM Ag Bound (RU),[4],1.6 RU
same,100 nM Ag Bound (RU),[5],105 RU
same,"IC50, NFkB-luc Ramos, 500 pM hCD40L",[6],3.09e-11 M
same,"Max % activation, NFkB-luc Ramos, no ligand",[6],13%
same,"Max % inhibition, NFkB-luc Ramos, 500 pM hCD40L",[6],88%
same,"IC50, NFkB-luc Raji, 900 pM hCD40L",[7],6.05e-11 M
same,"Max % activation, NFkB-luc Raji, no ligand",[7],15%
same,"Max % inhibition, NFkB-luc Raji, 900 pM hCD40L",[7],92%
same,"IC50, NFkB-luc THP-1, 10 nM hCD40L",[8],0.276 nM
same,"Max % activation, NFkB-luc THP-1, no ligand",[8],5%
same,"Max % inhibition, NFkB-luc THP-1, 10 nM hCD40L",[8],99%
same,% Blocking at highest mAb concentration,[9],94%
